Measured values taken from article PMC8420271 (The EMBO Journal, 2021).

Biological target: His-tagged SARS-CoV-2 nucleocapsid (SARS-CoV-2, UniProt P0DTC9 1-419)
Experiment: pull-down

B1: GST-GSDMD mutant lacking amino acids 265-284 (natural protein)
chain: MGSAFERVVRRVVQELDHGGEFIPVTSLQSSTGFQPYCLVVRKPSSSWFWKPRYKCVNLSIKDILEPDAAEPDVQRGRSFHFYDAMDGQIQGSVELAAPGQAKIAGGAAVSDSSSTSMNVYSLSVDPNTWQTLLHERHLRQPEHKVLQQLRSRGDNVYVVTEVLQTQKEVEVTRTHKREGSGRFSLPGATCLQGEGQGHLSQKKTVTIPSGSTLAFRVAQLVIDSDLDVLLFPDKKQRTFQPPATGHKRSTSEGAWPQLPSGLSEDFQGLRAEVETISKELELLDRELCQLLLEGLEGVLRDQLALRALEEALEQGQSLGPVEPLDGPAGAVLECLVLSSGMLVPELAIPVVYLLGALTMLSETQHKLLAEALESQTLLGPLELVGSLLEQSAPWQERSTMSLPPGLLGNSWGEGAPAWVLLDECGLELGEDTPHVCWEPQAQGRMCALYASLALLSGLSQEPH
binding result: binds
